What was measured:
mouse CEACAM5 = target: T1, mouse CEACAM5 (mouse, UniProt Q3UKK2 35-947, limits assumed); assay: ELISA on coated protein, OD450
T1 sequence (looked up): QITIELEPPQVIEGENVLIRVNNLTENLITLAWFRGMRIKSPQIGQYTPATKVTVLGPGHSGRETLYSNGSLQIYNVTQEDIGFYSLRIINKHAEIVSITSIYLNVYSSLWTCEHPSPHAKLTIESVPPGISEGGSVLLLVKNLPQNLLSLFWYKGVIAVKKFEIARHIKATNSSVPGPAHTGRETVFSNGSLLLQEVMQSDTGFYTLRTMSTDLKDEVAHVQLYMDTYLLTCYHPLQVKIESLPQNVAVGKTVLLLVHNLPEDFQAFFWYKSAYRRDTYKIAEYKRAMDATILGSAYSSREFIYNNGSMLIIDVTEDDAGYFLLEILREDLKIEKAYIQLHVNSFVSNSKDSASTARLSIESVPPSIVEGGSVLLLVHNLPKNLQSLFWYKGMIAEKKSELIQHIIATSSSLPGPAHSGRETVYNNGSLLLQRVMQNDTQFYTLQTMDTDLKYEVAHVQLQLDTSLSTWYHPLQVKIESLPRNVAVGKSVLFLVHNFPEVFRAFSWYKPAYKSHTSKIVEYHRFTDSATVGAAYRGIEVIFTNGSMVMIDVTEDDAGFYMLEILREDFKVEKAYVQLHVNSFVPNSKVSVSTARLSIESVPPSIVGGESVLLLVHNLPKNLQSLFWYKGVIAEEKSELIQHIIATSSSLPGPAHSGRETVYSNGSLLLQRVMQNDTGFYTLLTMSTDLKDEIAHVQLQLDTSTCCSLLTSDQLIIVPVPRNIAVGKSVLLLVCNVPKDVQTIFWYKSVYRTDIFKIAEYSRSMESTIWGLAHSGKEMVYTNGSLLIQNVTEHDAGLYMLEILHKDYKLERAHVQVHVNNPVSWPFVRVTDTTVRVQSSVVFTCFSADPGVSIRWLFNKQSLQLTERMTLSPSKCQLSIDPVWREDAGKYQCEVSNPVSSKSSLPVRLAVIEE
Procedure: The affinity of the antibodies to monkey CEACAM5, monkey CEACAM6, and mouse CEACAM5 proteins was determined by ELISA. The plates encapsulated with […] proteins were incubated at 4° C. overnight, and the antibodies to be detected were added to 96-well ELISA plates after being blocked with 2% PBS-BSA and incubated at 37° C. for 1 h. After washing 3 times with PBS containing 0.05% Tween, the absorbance value of each well was read at wavelength 450 nm with the antibody to be detected as the primary antibody and Goat anti-mouse IgG-FC-HRP as the secondary antibody, and the absorbance value of each well was read at wavelength 450 nm after the TMB color development. The specific binding to CEACAM5 and CEACAM6 of mouse and monkey was detected by Elisa method.

[1] = target: T2, human CEACAM5-his (ACRO CE5-H5226) (human, UniProt P06731 35-685); assay: ELISA on coated human CEACAM5, OD450
T2 construct: Bought protein; not shown: His tag
T2 sequence (looked up): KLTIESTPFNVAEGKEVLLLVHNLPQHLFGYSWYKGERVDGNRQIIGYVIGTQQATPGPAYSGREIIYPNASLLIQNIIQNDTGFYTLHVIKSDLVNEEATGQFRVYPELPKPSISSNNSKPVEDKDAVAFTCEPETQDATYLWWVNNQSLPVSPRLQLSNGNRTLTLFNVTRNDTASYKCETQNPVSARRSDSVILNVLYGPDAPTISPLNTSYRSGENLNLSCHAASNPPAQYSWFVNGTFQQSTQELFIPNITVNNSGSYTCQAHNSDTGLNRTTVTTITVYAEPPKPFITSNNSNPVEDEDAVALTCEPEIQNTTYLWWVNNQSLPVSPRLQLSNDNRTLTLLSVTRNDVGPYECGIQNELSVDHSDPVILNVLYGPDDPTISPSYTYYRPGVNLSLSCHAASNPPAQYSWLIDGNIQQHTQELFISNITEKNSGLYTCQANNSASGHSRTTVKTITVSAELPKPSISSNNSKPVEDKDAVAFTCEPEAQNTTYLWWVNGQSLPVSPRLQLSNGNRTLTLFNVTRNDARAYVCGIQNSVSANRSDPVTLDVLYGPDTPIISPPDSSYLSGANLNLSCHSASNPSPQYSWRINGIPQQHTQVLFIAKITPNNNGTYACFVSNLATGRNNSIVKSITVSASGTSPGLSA
Procedure: (§1) The binding activity of the antibodies to human CEACAM5, human CEACAM6, and human CEACAM6 (AB) proteins was detected by ELISA. The plate coated with proteins was incubated at 4° C. overnight, and the 96-well ELISA plate blocked with 2% PBS-BSA was added with the antibody to be detected and incubated at 37° C. for 1 h. After washing 3 times with PBS containing 0.05% Tween, the absorbance value of each well was read at wavelength 450 nm with the gradient-diluted mouse-derived candidate antibody as the primary antibody and anti-mouse-IgG-FC-HRP as the secondary antibody, and the absorbance value of each well was read at wavelength 450 nm after the TMB color development.

[2] = target: T3, CEACAM5 on the surface of the tumor cells (HPAFII cells) (UniProt P06731 35-685); assay: flow cytometry on HPAFII cells (Mean-FITC); the cells carry CEACAM5 and CEACAM6, signal not divided between the two
T3 construct: whole, on cells
T3 sequence (looked up): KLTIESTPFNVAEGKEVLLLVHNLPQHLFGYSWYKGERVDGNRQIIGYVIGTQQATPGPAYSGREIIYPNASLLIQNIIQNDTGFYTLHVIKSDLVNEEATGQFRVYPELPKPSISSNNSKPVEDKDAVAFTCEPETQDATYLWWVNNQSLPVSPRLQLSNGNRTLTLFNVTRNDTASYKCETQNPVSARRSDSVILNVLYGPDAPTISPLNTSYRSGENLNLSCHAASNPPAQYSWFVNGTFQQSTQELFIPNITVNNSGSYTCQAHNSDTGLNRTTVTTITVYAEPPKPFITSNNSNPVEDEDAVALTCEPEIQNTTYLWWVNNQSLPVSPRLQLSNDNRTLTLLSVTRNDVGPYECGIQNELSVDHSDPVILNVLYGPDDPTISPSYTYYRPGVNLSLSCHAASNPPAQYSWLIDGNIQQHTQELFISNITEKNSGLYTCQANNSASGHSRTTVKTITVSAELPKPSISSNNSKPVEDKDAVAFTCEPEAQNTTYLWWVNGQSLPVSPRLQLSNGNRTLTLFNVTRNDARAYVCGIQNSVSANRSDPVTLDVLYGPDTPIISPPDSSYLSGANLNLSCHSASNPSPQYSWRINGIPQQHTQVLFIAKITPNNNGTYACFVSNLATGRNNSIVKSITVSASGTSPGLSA
Procedure: (§2) The antibody to be tested was taken as the initial concentration of 200 nM and diluted 5-fold with 6 gradients. The HPAFII cells (From USTC […] FOR ADVANCED STUDIES) in the incubator were taken out, and the cell suspension was transferred to a 15 mL centrifuge tube, centrifuged, and counted by resuspension in PBS. A blank control group (Blank), a negative control group (NC), an experimental group, a positive control group and the irrelevant antibody group were kept. […] The cell suspension was spread in a 96-well plate according to about 3×10⁵ cells/well. Centrifugation (1000 rpm, 5 min) was performed, followed by washing with PBS, re-centrifugation, and repeated twice to remove media residues. The supernatant was discarded, 100 μL of primary antibody solution and irrelevant antibody solution were added to the experimental group and irrelevant antibody group, respectively, and the cells were resuspended and incubated at room temperature for 1 h. The blank group, and the negative control group were incubated with an equal amount of PBS.
(§3) After 1 h, PBS was added to wash twice. After the supernatant was discarded, 100 μL of fluorescent secondary antibody dilution (Mouse-derived secondary antibody from Abcam ab6785) was added to each sample group, except for the blank group which was added with 100 μL of PBS. After incubation at room temperature and protected from light for 0.5 h, centrifugation was performed and PBS added to wash the samples twice. After the supernatant was discarded, 120 μL of PBS was added to resuspend and sequentially flow cytometry was performed to detect the mean fluorescence intensity. The concentration of the antibody was logarithmically taken as the horizontal coordinate, and the Sigmoidaldose-response (VariableSlope) method (GraphPadPrism Software, GraphPadSoftware, San Diego, California) was chosen to perform a nonlinear regression to obtain the binding activity curves of the antibody on HPAFII cells.

[3] = target: T4, CEACAM6 on the surface of the tumor cells (HPAFII cells) (UniProt P40199 35-320); assay: as above
T4 construct: whole, on cells
T4 sequence (looked up): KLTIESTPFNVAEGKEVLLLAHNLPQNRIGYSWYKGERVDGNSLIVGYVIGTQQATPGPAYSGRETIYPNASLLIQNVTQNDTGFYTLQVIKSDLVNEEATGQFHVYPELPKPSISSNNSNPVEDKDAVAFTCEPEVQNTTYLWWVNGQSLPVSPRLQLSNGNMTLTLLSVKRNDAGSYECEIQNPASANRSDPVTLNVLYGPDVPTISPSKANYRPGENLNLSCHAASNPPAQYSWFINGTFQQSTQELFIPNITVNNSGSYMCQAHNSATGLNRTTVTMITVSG
Procedure: as §2, §3

Human-CEACAM6 (AB)-His = target: T5, Human-CEACAM6 (AB)-His (human, UniProt P40199 145-314); assay: ELISA on coated human CEACAM6 (AB), OD450
T5 construct: Made in house, purified on a nickel column
T5 sequence (P40199 other isoform, or with tags, fused parts or gaps limits assumed): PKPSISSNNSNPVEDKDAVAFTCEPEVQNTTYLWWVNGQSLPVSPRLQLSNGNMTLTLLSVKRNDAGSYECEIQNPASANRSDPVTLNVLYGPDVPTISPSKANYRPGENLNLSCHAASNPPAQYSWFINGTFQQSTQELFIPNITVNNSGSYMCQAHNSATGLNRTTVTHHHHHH
Procedure: as §1

[4] = target: T4, CEACAM6 on the surface of the tumor …; assay: flow cytometry on HPAFII cells (Mean PE); the cells carry CEACAM5 and CEACAM6, signal not divided between the two
Procedure: Centrifugation (1000 rpm, 5 min) was performed, followed by washing with PBS, re-centrifugation, and repeated twice to remove media residues. The supernatant was discarded, 100 μL of primary antibody solution and irrelevant antibody solution were added to the experimental group and irrelevant antibody group, respectively, and the cells were resuspended and incubated at room temperature for 1 h. The blank group, and the negative control group were incubated with an equal amount of PBS.
as §3, with “(Secondary” for “(Mouse-derived secondary”, “ab98596)” for “ab6785)”

B1: Antibody 10 (antibody, V domains shown)
VH: QVQLQQSGPELVRPGVSVKISCKGSGYTFTDFAMHWVRQSHSKSLEWVGIITTYGGDTNYNQKFRGKATMTVDRSSSTVFLELARLTSEDSAIYYCARNRAYRFFYAMDYWGQGTSVTVSS
VL: DIQMTQSPASLSASVGETVTITCGASENIYGALNWYQRKQGKSPHLLIYGATNLADGMSSRFSGSGSAGQYSLNISSLHPDDVATYYCQNVLFAPYTFGGGTRLEIK
notes: Mouse-derived hybridoma antibody; also called mouse-derived antibody 10
OD (mouse CEACAM5): 0.15 OD | EC50 (read off the curve) [1]: ~0.009 µg/mL | EC50 (read off the curve) [2]: ~7 nM | EC50 (read off the curve) [3]: ~7 nM

B2: Antibody 11 (antibody, V domains shown)
VH: QVQLQQSGPELVRPGVSVKISCKGSGYTFTDFAIHWVRQSHSRSLEWVGIITTYGGDTNYNQKFRGKATMTVDKSSSTVFLELARLTSEDSAIYYCARNRAYRFFYAMDYWGQGTSVTVSS
VL: DIQMTQSPASLSASVGETVTITCGASENIYGALNWYQRKQGKSPQLLIYGATNLADGMSSRFSGSGSAGQYSLNISSLHPDDVATYYCQSVLFAPYTFGGGTRLEIK
notes: Mouse-derived hybridoma antibody; also called mouse-derived antibody 11
EC50 (read off the curve) [1]: ~0.01 µg/mL | EC50 (read off the curve) [2]: ~4 nM | EC50 (read off the curve) [3]: ~4 nM

B3: Antibody 9 (antibody, V domains shown)
VH: EVKLVESGGGLVQPGGSLRLSCATSEITFIDYYMSWVRQPPGKALEWLGLIRNKANGYTTEYSESVKGRFTISRDKSQSILYLQMNTLRVEDSATYYCARDPGINWYFDVWGAGTTVTVSS
VL: QNILSQSPTILSASPGEKVTMTCRASSSVSYMHWYQQKPGSSPKPWIYATSNLASGVPARFSGSGSGTSYSLTISRVEAEDVAIYFCQRWGYNPPTFGAGTKLELK
notes: Mouse-derived hybridoma antibody; also called mouse-derived antibody 9
EC50 (read off the curve) [1]: ~0.02 µg/mL | EC50 (read off the curve) (Human-CEACAM6 (AB)-His): ~0.01 µg/mL | EC50 (read off the curve) [2]: ~6 nM | EC50 (read off the curve) [3]: ~6 nM

B4: Antibody I (antibody, human IgG1, kappa, V domains shown)
VH: EVKLVESGGGLVQPGGSLRLSCATSEFTLIDYYMSWVRQSPGKALEWLGYIRNKVNGHTTDYIASVKGRFTISRDDSKNSLYLQMNSLKTEDTATYYCVRDPGINWYFDVWGQGTLVTVSS
VL: QIVLTQSPATLSLSPGERATLSCRASSRVTYMHWYQQKPGSSPKPLISATSNLASGIPARFSGSGSGTDYTLTISSLEPEDFATYYCQQWSYNPPTFGGGTKLELKR
notes: humanized from mouse-derived antibody 2; also called humanized antibody I
binding result [4]: binds
